Experimental data taken from patent US20210108188A1.

Target: APOBEC3B with C-terminal 3xHA tag (A3Bi-3xHA) (human) (UniProt Q9UH17)
Test: cell-based or functional assay

eGFP-positive 293T cells 72 hours post-transfection (chromosomal eGFP Leu202 reporter): 1.5%
episomal eGFP Leu202 reporter editing frequency against the BFP-Cas9n/gRNA background: > 2 fold
Substance: hnRNPUL1-Cas9n-UGI-NLS (heterogeneous nuclear ribonucleoprotein U-like fused to the N-terminal end of Cas9 nickase, in the BE3 vector in place of APOBEC1) (from UniProt Q9BUJ2 1-856; Q99ZW2 2-1368; P14739 2-84)
